From patent publication US12618845B2, “Methods and compositions for protein sequencing” (Quantum-Si Incorporated, priority 2018, dated 2026)
Like-named read-outs stand apart in the source and are kept apart here.

System: peptide substrates
Assay type: biochemical

B1: VPr: Vibrio proteolyticus aminopeptidase (protein)
chain: MPPITQQATVTAWLPQVDASQITGTISSLESFTNRFYTTTSGAQASDWIASEWQALSASLPNASVKQVSHSGYNQKSVVMTITGSEAPDEWIVIGGHLDSTIGSHTNEQSVAPGADDDASGIAAVTEVIRVLSENNFQPKRSIAFMAYAAEEVGLRGSQDLANQYKSEGKNVVSALQLDMTNYKGSAQDVVFITDYTDSNFTQYLTQLMDEYLPSLTYGFDTCGYACSDHASWHNAGYPAAMPFESKFNDYNPRIHTTQDTLANSDPTGSHAKKFTQLGLAYAIEMGSATGDTPTPGNQ
HPLC Assay Conv (substrate […]1 (SEQ ID NO: 11), 600 μM Peptide, 0.08 μM enzyme, 10 mM 5Mg(OAc)2, 0 mM MOPS pH 8, 60 mM KOAc, RT/0.5 hr): 5% | HPLC Assay Conv (substrate […]1 (SEQ ID NO: 11), 600 μM Peptide, 0.8 μM enzyme, 10 mM Mg(OAc)2, 50 mM MOPS pH 8, 60 mM KOAc, RT/0.5 hr): 50% | HPLC Assay Conv (substrate […]1 (SEQ ID NO: 11), 600 μM Peptide, 8 μM enzyme, 10 mM Mg(OAc)2, 50 mM MOPS pH 8, 60 mM KOAc, RT/0.5 hr): 100% | HPLC Assay Conv (substrate […]1 (SEQ ID NO: 11), 600 μM Peptide, 8 μM enzyme, 10 mM Mg(OAc)2, 50 mM MOPS pH 8, RT/0.5 hr): 100% | HPLC Assay Conv (substrate […]1 (SEQ ID NO: 13), 300 μM Peptide, 8 μM enzyme, 10 mM Mg(OAc)2, 50 mM MOPS pH 8, 60 mM KOAc, 37° C./2 hr): 100% | HPLC Assay Conv (substrate […]1 (SEQ ID NO: 13), 300 μM Peptide, 8 μM enzyme, 10 mM Mg(OAc)2, 50 mM MOPS pH 8, 60 mM KOAc, RT/0.5 hr): 70% | HPLC Assay Conv (substrate […]1 (SEQ ID NO: 13), 300 μM Peptide, 8 μM enzyme, 10 mM Mg(OAc)2, 50 mM MOPS pH 8, 60 mM KOAc, RT/2 hr): 100% | HPLC Assay Conv (substrate […]1 (SEQ ID NO: 13), 300 μM Peptide, 8 μM enzyme, 10 mM Mg(OAc)2, 50 mM MOPS pH 8, 0.2% Tween20, RT/0.5 hr): 100% | HPLC Assay Conv (substrate […]1 (SEQ ID NO: 13), 300 μM Peptide, 8 μM enzyme, 10 mM Mg(OAc)2, 50 mM MOPS pH 8, RT/0.5 hr): 100% | HPLC Assay Conv (substrate […]1 (SEQ ID NO: 13), 300 μM Peptide, 8 μM enzyme, 50/50 MOPS Mg buffer/RB1, RT/0.5 hr): 30% | HPLC Assay Conv (substrate […]1 (SEQ ID NO: 13), 300 μM Peptide, 8 μM enzyme, RB2 + Mg, RT/0.5 hr): 5% | HPLC Assay Conv (substrate […]1 (SEQ ID NO: 13), 300 μM Peptide, 8 μM enzyme, RB4, RT/0.5 hr): 100% | HPLC Assay Conv (substrate […]1 (SEQ ID NO: 13), 600 μM Peptide, 8 μM enzyme, 10 mM Mg(OAc)2, 50 mM MOPS pH 8, RT/0.5 hr): 100% | HPLC Assay Conv (substrate […]{LYSN3}NH2 (SEQ ID NO: 107), 200 μM Peptide, 4 μM enzyme, 10 mM MgCl2, 50 mM MOPS pH 8.0, 37° C./0.5 hr): 100% | HPLC Assay Conv (substrate […]{LYSN3}NH2 (SEQ ID NO: 107), 200 μM Peptide, 4 μM enzyme, 10 mM MgCl2, 50 mM MOPS pH 8.0, 37° C./1 hr): 100% | HPLC Assay Conv (substrate […]{LYSN3}NH2 (SEQ ID NO: 107), 200 μM Peptide, 8 μM enzyme, 10 mM MgCl2, 50 mM MOPS pH 5.0, RT/0.5 hr): 100% | HPLC Assay Conv (substrate […]{LYSN3}NH2 (SEQ ID NO: 107), 200 μM Peptide, 8 μM enzyme, 10 mM MgCl2, 50 mM MOPS pH 5.0, RT/1 hr): 100% | HPLC Assay Conv (substrate […]{LYSN3}NH2 (SEQ ID NO: 107), 300 μM Peptide, 4 μM enzyme, 10 mM MgCl2, 50 mM MOPS pH 8.0, 37° C./0.5 hr): 100% | HPLC Assay Conv (substrate […]{LYSN3}NH2 (SEQ ID NO: 107), 400 μM Peptide, 8 μM enzyme, 50 mM HEPES pH 8.0, 300 mM NaCl, 1 mM DTT, 5% Glycerol, 32 mM PCA, 37° C./1 hr): 100% | HPLC Assay Conv (substrate […]{LYSN3}NH2 (SEQ ID NO: 107), 600 μM Peptide, 0.8 μM enzyme, 10 mM Mg(OAc)2, 50 mM MOPS pH 5.5, RT/0.5 hr): 100% | HPLC Assay Conv (substrate […]{LYSN3}NH2 (SEQ ID NO: 107), 600 μM Peptide, 0.8 μM enzyme, 10 mM Mg(OAc)2, 50 mM MOPS pH 6.5, RT/0.5 hr): 100% | HPLC Assay Conv (substrate […]{LYSN3}NH2 (SEQ ID NO: 107), 600 μM Peptide, 0.8 μM enzyme, 10 mM Mg(OAc)2, 50 mM MOPS pH 7.5, RT/0.5 hr): 100% | HPLC Assay Conv (substrate […]{LYSN3}NH2 (SEQ ID NO: 107), 600 μM Peptide, 0.8 μM enzyme, 10 mM Mg(OAc)2, 50 mM MOPS pH 8.5, RT/0.5 hr): 100% | HPLC Assay Conv (substrate […]{LYSN3}NH2 (SEQ ID NO: 107), 1200 μM Peptide, 800 pM enzyme, 10 mM Mg(OAc)2, 50 mM MOPS pH 7.5, RT/0.5 hr): 2.70% | HPLC Assay Conv (substrate […]{LYSN3}NH2 (SEQ ID NO: 107), 1200 μM Peptide, 800 pM enzyme, 10 mM Mg(OAc)2, 50 mM MOPS pH 8.5, RT/0.5 hr): 6.80% | HPLC Assay Conv (substrate […]{LYSN3}NH2 (SEQ ID NO: 107), 1200 μM Peptide, 0.008 μM enzyme, 10 mM Mg(OAc)2, 50 mM MOPS pH 7.5, RT/0.5 hr): 100% | HPLC Assay Conv (substrate […]{LYSN3}NH2 (SEQ ID NO: 107), 1200 μM Peptide, 0.008 μM enzyme, 10 mM Mg(OAc)2, 50 mM MOPS pH 8.5, RT/0.5 hr): 100% | HPLC Assay Conv (substrate […]{LYSN3}NH2 (SEQ ID NO: 107), 1200 μM Peptide, 0.08 μM enzyme, 10 mM Mg(OAc)2, 50 mM MOPS pH 5.5, RT/0.5 hr): 50% | HPLC Assay Conv (substrate […]{LYSN3}NH2 (SEQ ID NO: 107), 1200 μM Peptide, 0.08 μM enzyme, 10 mM Mg(OAc)2, 50 mM MOPS pH 6.5, RT/0.5 hr): 100% | HPLC Assay Conv (substrate […]{LYSN3}NH2 (SEQ ID NO: 107), 1200 μM Peptide, 0.08 μM enzyme, 10 mM Mg(OAc)2, 50 mM MOPS pH 7.5, RT/0.5 hr): 100% | HPLC Assay Conv (substrate […]{LYSN3}NH2 (SEQ ID NO: 109), 300 μM Peptide, 4 μM enzyme, 10 mM MgCl2, 50 mM MOPS pH 8.0, 37° C./0.5 hr): 100% | HPLC Assay Conv (substrate […]{LYSN3}NH2 (SEQ ID NO: X), 1200 μM Peptide, 0.08 μM enzyme, 10 mM Mg(OAc)2, 50 mM MOPS pH 8.5, RT/0.5 hr): 100%
